Measured values taken from publication PMC6347818.

Key:
[1] = target: recombinant Plasmodium vivax Apical Membrane Antigen 1, PvAMA1-His6 (Plasmodium vivax) (UniProt Q9TY14); test: SPR; Biacore T200; PvAMA1-His6 amine-coupled on a CM5 chip; peptides injected at 50 µL/min, 25 °C, PBS; steady-state model, apparent KD
[2] = target: recombinant Plasmodium vivax Apical Membrane Antigen 1, PvAMA1-His6 (Plasmodium vivax) (UniProt Q9TY14); test: ITC; MicroCal VP-ITC; 9.43 µmol/L PvAMA1-His6 in the cell titrated with 300 µmol/L peptide (10 µL injections), 25 °C, PBS; one-site model

Question: Which results are given for cyclic PvRON2 (2035-2074) peptide?
Answer: Kd [1]: 23.9 µM; Ka [2]: 300000 M⁻¹; dH [2]: -36 kcal/mol; stoichiometry N (peptide/protein) [2]: 0.6
